Results from article PMC5627308, “Biochemical Function, Molecular Structure and Evolution of an Atypical Thioredoxin Reductase from Desulfovibrio vulgaris” (Frontiers in Microbiology, 2017).
Values belong to the compound of their own block, whether it stands above or below them.

Columns and labels:
DvTR3 = target: T1, DvTR3 (Nitratidesulfovibrio vulgaris, UniProt Q72F38); assay: reduction of bound flavin, absorbance spectra, anaerobic; type: biochemical; settings: 100 uM NAD(P)H, 50 mM Tris-HCl pH 7.5, 150 mM NaCl, 25 C
T1 construct: gene trxB-1; recombinant from E. coli, purified; FAD-containing

DvTR1 = target: T2, DvTR1 (Nitratidesulfovibrio vulgaris, UniProt Q72B02); assay: as above; type: biochemical; settings: 100 uM NAD(P)H, 50 mM Tris-HCl pH 7.5, 150 mM NaCl, 25 C
T2 construct: gene trxB-2; recombinant from E. coli, purified; FAD-containing

[1] = target: DvTRi, isolated thioredoxin reductase from Desulfovibrio vulgaris Hildenborough (Desulfovibrio vulgaris Hildenborough); assay: crystal structure; oxidized DvTRi, 2.0 Å; crystals from 12% PEG 3350, 100 mM BisTris pH 6.0 (crystals 1) or 25% PEG 4000, 50 mM ammonium acetate, 100 mM sodium citrate pH 5.6 (crystals 2)
[2] = target: DvTrx1C30S (Desulfovibrio vulgaris Hildenborough); assay: cross-linking; mixed-disulfide trapping with single-cysteine variants: DTT-reduced DvTRi variant reacted with equimolar DvTrx1 variant activated as TNB mixed disulfide, 50 mM Na/K phosphate pH 8.8, 2 h at 37°C; non-reducing SDS-PAGE, western blot with antiserum against EcTrxA
[3] = target: DvTrx1C33S (Desulfovibrio vulgaris Hildenborough); assay: as above

T1 sequence (Q72F38 entry or part of it): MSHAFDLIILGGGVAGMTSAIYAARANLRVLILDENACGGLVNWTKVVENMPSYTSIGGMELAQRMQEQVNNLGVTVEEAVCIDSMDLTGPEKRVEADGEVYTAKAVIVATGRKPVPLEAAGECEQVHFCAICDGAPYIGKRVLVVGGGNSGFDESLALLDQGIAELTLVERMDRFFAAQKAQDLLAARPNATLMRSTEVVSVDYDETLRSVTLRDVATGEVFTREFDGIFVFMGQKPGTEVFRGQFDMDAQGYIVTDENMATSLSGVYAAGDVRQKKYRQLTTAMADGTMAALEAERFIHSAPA
T2 sequence (Q72B02 entry or part of it): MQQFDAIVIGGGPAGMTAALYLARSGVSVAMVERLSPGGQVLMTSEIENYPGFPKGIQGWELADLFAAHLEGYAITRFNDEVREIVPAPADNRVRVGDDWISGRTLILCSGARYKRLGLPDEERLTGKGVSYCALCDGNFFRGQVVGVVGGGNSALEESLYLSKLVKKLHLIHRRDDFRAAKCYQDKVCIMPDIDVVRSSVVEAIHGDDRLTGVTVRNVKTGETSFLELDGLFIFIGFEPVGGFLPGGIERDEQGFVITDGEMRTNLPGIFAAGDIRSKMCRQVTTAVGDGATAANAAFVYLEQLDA

stoichiometry N [1]: 2
Compound: DvTRi, isolated thioredoxin reductase from Desulfovibrio vulgaris Hildenborough (enzyme)

stoichiometry N [2]: 2
Compound: DvTrx1C30S (natural protein)

Further lines, the compound ahead of its results:

Compound: NC(=O)C1=CN([C@@H]2O[C@H](COP(=O)(O)OP(=O)(O)OC[C@H]3O[C@@H](n4cnc5c(N)ncnc54)[C@H](O)[C@@H]3O)[C@@H](O)[C@H]2O)C=CC1 [NADH]
reduction of bound flavin, absorbance spectra, anaerobic (DvTR3): DvTR1 and DvTR3 were efficiently reduced by their specific reductants

Compound: NC(=O)C1=CN([C@@H]2O[C@H](COP(=O)(O)OP(=O)(O)OC[C@H]3O[C@@H](n4cnc5c(N)ncnc54)[C@H](OP(=O)(O)O)[C@@H]3O)[C@@H](O)[C@H]2O)C=CC1 [NADPH]
reduction of bound flavin, absorbance spectra, anaerobic (DvTR1): DvTR1 and DvTR3 were efficiently reduced by their specific reductants

Compound: DvTrx1C33S (natural protein)
stoichiometry N [3]: 2
